Measured values reported in patent publication US20110274702A1.

How the values were obtained:
Assay in all cases: ELISA on coated HA
[1] = target: H9N2 A/Hong Kong/1073/99 HA protein (influenza A virus H9N2 A/Hong Kong/1073/99)
[2] = target: H5N1 A/Viet Nam/1/05 HA protein (influenza A virus H5N1 A/Viet Nam/1/05)
[3] = target: H5N1 A/Viet Nam/1203/04 HA protein (influenza A virus H5N1 A/Viet Nam/1203/04)
[4] = target: H3N2 A/Wyoming/3/03 HA protein (influenza A virus H3N2 A/Wyoming/3/03)
[5] = target: B/Ohio/1/05 HA protein (influenza B virus B/Ohio/1/05)
[6] = target: H7N7 A/Netherlands/219/03 HA protein (influenza A virus H7N7 A/Netherlands/219/03)
[7] = target: H10N4 A/mink/Sweded/3900/84 HA protein (influenza A virus H10N4 A/mink/Sweded/3900/84)
[8] = target: H1N1 A/Brisbane/59/07 HA protein (influenza A virus H1N1 A/Brisbane/59/07)
[9] = target: H8N4 A/Alberta/357/84 HA protein (influenza A virus H8N4 A/Alberta/357/84)
[10] = target: H7N3 A/Canada/444/04 HA protein (influenza A virus H7N3 A/Canada/444/04)
[11] = target: H3N2 A/Brisbane/10/07 HA protein (influenza A virus H3N2 A/Brisbane/10/07)
[12] = target: H3N2 A/New York/55/04 HA protein (influenza A virus H3N2 A/New York/55/04)
[13] = target: H6N5 A/shearwater/Australia/1/72 HA protein (influenza A virus H6N5 A/shearwater/Australia/1/72)
[14] = target: H4N6 A/duck/Czechoslovakia/56 HA protein (influenza A virus H4N6 A/duck/Czechoslovakia/56) (UniProt P19696)

Measured: EC50

ctr (antibody)
> 20 µg/mL: all assays above
